From patent publication US20130302313A1

Target: coxsackievirus-adenovirus receptor (CAR) (UniProt P78310)
Assay: cell-based or functional assay

Chain of UniProt P78310 (P78310 20-365 limits assumed): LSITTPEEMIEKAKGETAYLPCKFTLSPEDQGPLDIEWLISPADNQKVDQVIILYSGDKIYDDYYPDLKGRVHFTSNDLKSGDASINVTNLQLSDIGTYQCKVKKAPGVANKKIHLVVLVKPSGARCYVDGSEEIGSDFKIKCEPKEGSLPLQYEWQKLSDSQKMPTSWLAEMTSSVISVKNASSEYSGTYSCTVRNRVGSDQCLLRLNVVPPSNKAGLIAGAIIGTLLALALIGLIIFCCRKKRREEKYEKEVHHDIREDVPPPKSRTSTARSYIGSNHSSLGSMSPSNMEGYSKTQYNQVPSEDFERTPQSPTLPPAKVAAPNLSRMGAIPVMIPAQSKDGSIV

For “free soluble Ad5 fiber molecules (from UniProt P11818 1-581) (ligand)”, the GFP expression (transduction) of A549 cells by Ad5(GFP) at 500 evg/cell in the presence of soluble Ad5 fiber, relative to absence of soluble fiber (set to 100%) was 20% and the Transduction efficacy of A549 cells by Ad5PTD(GFP) at 500 evg/cell in the presence of soluble Ad5 fiber, relative to absence of soluble fiber (set to 100%) was 80%.
